Source: patent publication US7871610B2, “Antibodies to Tie1 ectodomain” (Dyax Corp., priority 2003, dated 2011)
Numbering of substitutions follows the chain as printed. Entries after “also recorded” stand apart in the source; their conditions may differ. Blank lines part the entries; values can stand above or below the molecule they belong to.

What was measured:
[1] = target: T1, Tie1-EpoR chimeric receptor (UniProt P14753+P35590); test: Ba/F3 bioassay (Tie1/EpoR chimeric BaF3 cell assay), MTT viability; assay type: cell-based, human; conditions: 100 ng/ml E3 IgG together with 100 (1:1) or 500 (1:5) ng/ml of the other antibody
T1 construct: the PCR amplified extracellular part of human Tie1 (bp 37-2316 of X60975); expressed in transfected cells
T1 sequence (P35590+P14753 with tags, fused parts or gaps): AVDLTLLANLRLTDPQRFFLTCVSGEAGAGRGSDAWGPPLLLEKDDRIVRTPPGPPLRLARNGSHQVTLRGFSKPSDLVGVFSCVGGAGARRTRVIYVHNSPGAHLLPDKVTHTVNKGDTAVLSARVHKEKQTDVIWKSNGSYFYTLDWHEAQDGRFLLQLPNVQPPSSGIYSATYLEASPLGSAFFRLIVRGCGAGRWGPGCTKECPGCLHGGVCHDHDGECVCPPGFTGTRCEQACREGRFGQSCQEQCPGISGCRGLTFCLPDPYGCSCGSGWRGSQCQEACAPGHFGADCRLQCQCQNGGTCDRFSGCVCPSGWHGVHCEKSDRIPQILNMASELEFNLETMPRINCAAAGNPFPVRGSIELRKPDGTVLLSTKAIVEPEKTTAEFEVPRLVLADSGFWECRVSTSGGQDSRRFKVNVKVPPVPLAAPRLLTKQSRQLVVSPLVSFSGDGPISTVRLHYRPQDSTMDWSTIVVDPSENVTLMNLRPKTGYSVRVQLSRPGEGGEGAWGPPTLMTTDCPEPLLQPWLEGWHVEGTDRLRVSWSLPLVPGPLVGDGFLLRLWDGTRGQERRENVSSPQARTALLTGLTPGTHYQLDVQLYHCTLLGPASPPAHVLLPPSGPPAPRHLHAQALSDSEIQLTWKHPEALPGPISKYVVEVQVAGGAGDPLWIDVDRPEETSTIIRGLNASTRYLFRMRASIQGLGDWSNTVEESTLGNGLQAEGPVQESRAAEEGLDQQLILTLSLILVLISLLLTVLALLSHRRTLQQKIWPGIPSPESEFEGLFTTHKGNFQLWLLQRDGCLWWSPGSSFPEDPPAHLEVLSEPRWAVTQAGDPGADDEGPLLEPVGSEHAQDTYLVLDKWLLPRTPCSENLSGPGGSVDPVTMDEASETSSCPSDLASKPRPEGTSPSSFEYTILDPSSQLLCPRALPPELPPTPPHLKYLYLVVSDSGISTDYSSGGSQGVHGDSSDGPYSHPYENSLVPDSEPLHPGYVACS
Text: To generate Tie1-EpoR expressing Ba/F3 cells for the bioassay, Ba/F3 pre-B cells were stably transfected with a nucleic acid that expresses chimeric receptor containing the extracellular domain of human Tie1 fused with the transmembrane and cytoplasmic domains of the mouse erythropoietin receptor. The nucleic acid used was a Tie1-EpoR chimeric cDNA in a pEF-BOS expression vector. The nucleic acid encoding the chimeric receptor was constructed by cloning the PCR amplified extracellular part of human Tie1 (bp 37-2316 of X60975) as EcoRI-BglII fragment into mEpoR-pcDNA vector. The cDNA encoding for the chimeric receptor consisting of the extracellular part of Tie1 fused with the transmembrane and intracellular domains of EpoR was subcloned into the pEF-BOS expression vector. Vector was linearized and co-transfected into Ba/F3 cells with pcDNA3.1(+) Zeo vector (Invitrogen). Stable cell pools were generated by selection with 250 μg/ml Zeocin. The expression of Tie1/EpoR fusion protein in several clones was analyzed by Western blotting with an antibody against EpoR.
To perform the assays, Ba/F3 cells expressing the Tie 1-EpoR chimera were split in 96-well microtiter plates at 50 000 cells/well in the presence of the indicated concentrations of anti-Tie1 antibodies. As controls, Zeocin resistant pools not expressing the Tie1-EpoR were used. After 48 h, the viability of the cells was determined by adding MTT (3-(4,5-dimethylthiazol-2-yl)-2,5-diphenyl tetrazolium bromide (Sigma), 0.5 mg/ml), followed by further 2 h of culture, addition of an equal volume of cell lysis solution (10% SDS, 10 mM HCl) and incubation overnight at 37° C. Absorbance was measured at 540 nm.
Although no ligand for Tie1 has been identified, we used the following efficient screening method for Tie1-binding proteins. Interleukin-3 dependent pre-B-lymphocyte (Ba/F3) cells were transfected with a construct that expresses a Tie1-EpoR fusion protein. Since Ba/F3 cells are IL-3 dependent, they die unless IL-3 is provided. However, Tie-EpoR receptor expressing Ba/F3 cells can survive and proliferate if the medium contains a Tie1-binding protein, either a natural ligand or an artificial mimetic. Cell survival can be quantitated, e.g., by colorimetric MTT-assay, which measures mitochondrial activity.

Tie1 = Tie1 (Homo sapiens, UniProt P35590); test: Immunohistochemistry of matched human tumor and normal tissue sections; parameters: from tissue; host or cells: fresh frozen normal and tumor tissue (e.g. lung, kidney, skin, breast); conditions: fresh frozen tissue
Procedure: The Tie-1 antibodies were biotinylated using the EZ-link Sulfo-NHS-SS-Biotin (Pierce, Cat. 21331). For Tie-1/Fc and Tie-1-His, the reaction was performed for 2 hours on ice in 50 mM sodium carbonate buffer, pH 9.6, in the presence of a 5-fold molar excess of biotinylating agent. For the antibodies, the reaction was performed for 2 hours on ice in PBS, in the presence of a 15-fold molar excess of EZ-link Sulfo-NHS-SS-Biotin. The reaction was stopped by the addition of Tris-HCl, pH 7.5 (50 mM final concentration) followed by a 1-hour incubation on ice. Samples were then dialyzed against PBS.
Various normal and tumor tissue sections were stained with biotinylated antibodies. A mouse monoclonal anti-Tie1 antibody (7e8) (Alitalo laboratory, University of Helsinki) was used as a positive control. Sections without primary antibody served as negative control. All samples were fresh frozen tissues and staining was performed with the TSA-kit (Perkin-Elmer Life Sciences). After acetone fixation (10-20 min, −20° C.) the slides were treated with 0.73% H2O2 for 10 min to reduce endogenous peroxidase activity followed by blocking for 30 min with TNB buffer. Sections ([…] thick) were incubated with primary antibodies (10 μg/ml) overnight at 4° C. Sections with the mouse monoclonal anti-tie1 antibody (7e8) were treated with biotinylated anti-mouse antibodies (VectaStain) before the addition of streptavidin-HRP. Signal was amplified by using a TSA kit and the visualized by AEC (235 ml NaAc, 15 ml AEC (stock solution: 1600 mg 3-amino-9-ethyl-carbazole and 480 ml N-dimethylformamide), 250 μl H2O2).

Sequence of Tie1 (P35590 22-1138): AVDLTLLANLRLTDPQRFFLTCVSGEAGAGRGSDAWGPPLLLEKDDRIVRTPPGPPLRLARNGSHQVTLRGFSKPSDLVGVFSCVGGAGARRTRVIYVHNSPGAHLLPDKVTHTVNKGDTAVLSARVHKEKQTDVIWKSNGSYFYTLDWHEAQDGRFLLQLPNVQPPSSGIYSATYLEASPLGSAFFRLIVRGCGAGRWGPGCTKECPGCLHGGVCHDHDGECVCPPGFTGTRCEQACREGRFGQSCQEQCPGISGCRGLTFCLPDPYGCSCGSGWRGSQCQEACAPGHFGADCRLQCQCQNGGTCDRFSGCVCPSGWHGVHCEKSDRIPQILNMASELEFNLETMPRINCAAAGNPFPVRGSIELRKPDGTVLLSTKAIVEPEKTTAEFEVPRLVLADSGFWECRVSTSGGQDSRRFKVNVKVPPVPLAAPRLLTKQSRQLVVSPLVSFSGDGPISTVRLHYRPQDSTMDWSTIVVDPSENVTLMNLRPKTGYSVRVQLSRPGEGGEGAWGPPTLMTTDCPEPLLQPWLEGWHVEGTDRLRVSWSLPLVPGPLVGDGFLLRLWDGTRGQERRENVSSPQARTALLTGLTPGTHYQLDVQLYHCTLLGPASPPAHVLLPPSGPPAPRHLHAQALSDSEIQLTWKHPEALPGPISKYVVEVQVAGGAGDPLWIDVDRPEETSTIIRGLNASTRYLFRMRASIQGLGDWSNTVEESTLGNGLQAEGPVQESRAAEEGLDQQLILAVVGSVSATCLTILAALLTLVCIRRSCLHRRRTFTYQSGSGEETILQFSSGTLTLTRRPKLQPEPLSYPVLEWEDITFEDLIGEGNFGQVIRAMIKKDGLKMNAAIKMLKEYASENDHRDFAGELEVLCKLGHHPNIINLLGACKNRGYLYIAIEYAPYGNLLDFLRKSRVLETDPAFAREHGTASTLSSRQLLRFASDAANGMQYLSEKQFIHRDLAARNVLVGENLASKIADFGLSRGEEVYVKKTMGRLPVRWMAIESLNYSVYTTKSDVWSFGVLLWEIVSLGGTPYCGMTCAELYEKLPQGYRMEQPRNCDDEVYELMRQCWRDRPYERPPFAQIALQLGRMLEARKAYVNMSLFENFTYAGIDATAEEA

B1: C7: anti-Tie1 antibody; VH SEQ ID NO:76, VL SEQ ID NO:78 (antibody, V domains shown)
VH: EVQLLESGGGLVQPGGSLRLSCAASGFTFSRYVMYWVRQAPGKGLEWVSVIYPSGGATYYADSVKGRFTISRDNSKNTLYLQMNSLRAEDTAVYYCARRGSSGAFDYWGQGTLVTVSSASTKGPSVFP
VL: HSAQSVLTQPASVSGSPGQSITISCTGTSSDIGRYNYASWYQQRPGKSPKLLIYEVSDRPSGVSNRFSGSKSGNTASLIISGLQAEDEADYYCSSYSSTNSLQVVFGGGTKLSVLGQPKAAPSVTLFPPSSEELQANKATLVCL
modifications: Synthetically generated peptide
- effect on the survival effect of E3 IgG in Tie1-EpoR Ba/F3 assay [1]: promoted the survival

- staining of lung carcinoma (Tie1; 10 μg/ml): stained structures other than vessels
- staining of normal lung (large veins) (Tie1; 10 μg/ml): did not stain the same veins
- staining of normal skin (Tie1; 10 μg/ml): stained blood vessels very faintly
B2: B2: anti-Tie1 antibody; VH SEQ ID NO:64, VL SEQ ID NO:66 (antibody, V domains shown)
VH: EVQLLESGGGLVQPGGSLRLSCAASGFTFSIYGMAWVRQAPGKGLEWVSVISPSGGQTFYADSVKGRFTISRDNSKNTLYLQMNSLRAEDTAVYYCARVYYYGMDVWGQGTTVTVSSASTKGPSVFP
VL: HSAQDIQMTQSPATLSLSPGERATLSCRASQSVSSYLAWYQQKPGQAPRLLIYDASNRATGIPARFSGSGSETDFTLTISSLEPEDFAVYYCQQRSKWPRTFGQGTKLEIK
modifications: Synthetically generated peptide
- effect on the survival effect of E3 IgG in Tie1-EpoR Ba/F3 assay [1]: completely blocked the viability; also recorded: blocked completely the survival effect of E3 IgG; also recorded: counteract the agonistic activity of E3
- staining of breast carcinoma (Tie1; 10 μg/ml): stained also other structures in addition to vessels
- staining of kidney (Tie1; 10 μg/ml): only very faint staining of either tubules or vessels
- staining of melanoma tissue (Tie1; 10 μg/ml): also stained other surrounding structures
- staining of vessels in normal tissues (tissue specificity) (Tie1; biotinylated IgG 10 μg/ml): stained vessels very faintly in other normal tissues than in the breast

B3: A10: anti-Tie1 antibody; VH SEQ ID NO:60, VL SEQ ID NO:62 (antibody, V domains shown)
VH: EVQLLESGGGLVQPGGSLRLSCAASGFTFSNYVMVWVRQAPGKGLEWVSGIYPSGGHTKYADSVKGRFTISRDNSKNTLYLQMNSLRAEDTAVYYCARVNYYDSSGYGPIAPGLDYWGQGTLV
VL: HSAQDIQMTQSPGTLSLSPGERATLFCRASQRVTSNSLAWYQQRPGQAPRLLIYDASTRATGIPDRFSGSGSGRDFTLTISRLEPEDFAVYYCQRYGSSVLYSFGQGTKLEIT
modifications: Synthetically generated peptide
- effect on the survival effect of E3 IgG in Tie1-EpoR Ba/F3 assay [1]: inhibited the viability effect of E3 IgG to some extent

B4: A2: anti-Tie1 antibody; VH SEQ ID NO:56, VL SEQ ID NO:58; not the anti-streptavidin A2-SV (antibody, V domains shown)
VH: EVQLLESGGGLVQPGGSLRLSCAASGFTFSRYTMMWVRQAPGKGLEWVSGIYPSGGVTLYADSVKGRFTISRDNSKNTLYLQMNSLRAEDTAVYYCARVNYYDSSGYGPIAPGLDYWGQGTLVTVSSASTKGPSVFP
VL: HSAQDIQMTQSPGTLSLSPGERATLSCRASRSVIISYVAWYQQKPGQAPRLLIYGASTRATGIPDRFSGSGSGTDFTLTISRLEPEDFAVYFCQLYGRSPRIIFGQGTRLEIK
modifications: Synthetically generated peptide
notes: anti-Tie1 antibody; not the anti-streptavidin A2-SV
- effect on the survival effect of E3 IgG in Tie1-EpoR Ba/F3 assay [1]: inhibited the viability effect of E3 IgG to some extent

B5: G2: anti-Tie1 antibody; HC SEQ ID NO:110, LC SEQ ID NO:112 (antibody)
heavy: EVQLLESGGGLVQPGGSLRLSCAASGFTFSSYKMGWVRQAPGRGLEWVSSIYPSGGWTHYADSVKGRFTISRDNSKNTLYLQMNSLRAEDTAVYYCARVLLHYFDYWGQGTLVTVSSASTKGPSVFPLAPSSKSTSGAQRPWAAWSRTTSRDTGDGV
light: QSVLTQPASVSGSPGQSITISCTGTSSDVGGYKYVSWYQQHPGKAPKLIISDVNNRPSGVSDRFSGSKSGNTASLTISGLQAEDDGDYYCSSYASSSYTSSTTWVFGG
modifications: Synthetically generated peptide
- effect on the survival effect of E3 IgG in Tie1-EpoR Ba/F3 assay [1]: promoted the survival

B6: P-B3: anti-Tie1 antibody; VH SEQ ID NO:24, VL SEQ ID NO:26 (antibody, V domains shown)
VH: EVQLLESGGGLVQPGGSLRLSCAASGFTFSRYGMHWVRQAPGKGLEWVSVISPSGGMTYYADSVKGRFTISRDNTKNTLYLQMNSLRAEDTAVYYCARVGATGPFDIWGQGTMVTVSSASTKGPSVFPLAP
VL: QDIQMTQSPATLSLSPGERATLSCRASQSVSTYLAWYQQKPGQAPRLLIYDASNRATGIPGRFSGSGSGTDFTLTISSLEAEDFAVYYCQQRSSWPITFGQG
modifications: Synthetically generated peptide
- effect on the survival effect of E3 IgG in Tie1-EpoR Ba/F3 assay [1]: inhibited the viability effect of E3 IgG to some extent

B7: P-C6: anti-Tie1 antibody; VH SEQ ID NO:28, VL SEQ ID NO:30 (antibody, V domains shown)
VH: EVQLLESGGGLVQPGGSLRLSCAASGFTFSHYGMTWVRQAPGKGLEWVSVISPSGGQTGYADSVKGRFTISRDNSKNTLYLQMNSLRAEDTAVYYCAGGGYAAFDYWGQGTLVTVSSASTKGPSVFPLAPSSKSTSGGTAALG
VL: B6 VL with T32S, G61A, A81P, S94N, I97L, Q101G
modifications: Synthetically generated peptide
- effect on the survival effect of E3 IgG in Tie1-EpoR Ba/F3 assay [1]: inhibited the viability effect of E3 IgG to some extent
